Measured values reported in paper PMC4041212.

Assays:
BRCA1 [1] = target: BRCA1 (UniProt P38398); experiment: reverse co-IP; details: reference: wild type EXO1; sites S639,T732,S815,T824
BRCA1 [2] = target: BRCA1 (UniProt P38398); experiment: anti-V5 co-IP, BRCA1 blot; details: reference: wild type V5-EXO1; sites S639,T732,S815,T824

binding against the reference (BRCA1 [1]): weaker
binding against the reference (BRCA1 [2]): weaker
Substance: EXO1 (from UniProt Q9UQ84) 4A-EXO1
